Where a chain is given by its changes, count along the chain named. Names and notes keep the numbering of the source. Where two headings read alike, the source gives them in different places.
T1: biotinylated human TIGIT (human, UniProt Q495A1 22-141, biotinylated (EZ-Link NHS-PEG4-biotin kit))
T1 construct: extracellular domain; also called TIGIT-ECD
T1 sequence (looked up): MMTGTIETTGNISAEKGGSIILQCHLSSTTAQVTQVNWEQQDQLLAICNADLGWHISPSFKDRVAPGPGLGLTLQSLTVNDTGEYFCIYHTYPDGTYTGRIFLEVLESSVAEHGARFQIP

T2: mouse TIGIT-Fc (mouse, UniProt P86176 29-148)
T2 construct: extracellular domain; also called TIGIT-ECD; not shown: Fc
T2 sequence (looked up): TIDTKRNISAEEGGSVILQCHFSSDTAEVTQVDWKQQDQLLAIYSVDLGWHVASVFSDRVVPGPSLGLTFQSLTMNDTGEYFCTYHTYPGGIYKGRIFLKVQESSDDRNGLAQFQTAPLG

T3: His-tagged recombinant Human TIGIT (human, UniProt Q495A1 22-141)
T3 construct: coated antigen of the direct ELISA; not shown: His tag
T3 sequence (looked up): T1 sequence (looked up)

T4: His-tagged recombinant Mouse TIGIT (mouse, UniProt P86176 29-148, limits assumed)
T4 construct: coated antigen of the direct ELISA; not shown: His tag
T4 sequence (looked up): T2 sequence (looked up)

T5: human TIGIT fused to a beta galactosidase portion, on YTS cells (YTS_hTIGIT/hGrb2) (human, UniProt Q495A1 22-244)
T5 sequence (looked up): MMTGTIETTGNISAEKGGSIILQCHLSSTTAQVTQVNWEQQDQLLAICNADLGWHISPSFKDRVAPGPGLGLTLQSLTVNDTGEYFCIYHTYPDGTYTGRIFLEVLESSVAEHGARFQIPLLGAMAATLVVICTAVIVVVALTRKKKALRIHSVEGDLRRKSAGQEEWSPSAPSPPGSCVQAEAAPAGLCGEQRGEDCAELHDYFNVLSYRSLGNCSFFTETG

T6: biotinylated human TIGIT (human, UniProt Q495A1 22-141, biotinylated (EZ-Link NHS-PEG4-biotin kit))
T6 construct: extracellular domain; also called human TIGIT extra cellular domain; TIGIT-ECD
T6 sequence (looked up): T1 sequence (looked up)

T7: human TIGIT fused to a beta galactosidase fragment, expressed on YTS cells (human, UniProt Q495A1 22-244)
T7 sequence (looked up): T5 sequence (looked up)

T8: mouse TIGIT-Fc (mouse, UniProt P86176 29-148)
T8 construct: extracellular domain; also called mouse TIGIT extra cellular domain
T8 sequence (looked up): T2 sequence (looked up)

T9: mouse TIGIT-Fc (mouse, UniProt P86176 29-148)
T9 construct: extracellular domain; also called mouse TIGIT-ECD; not shown: Fc
T9 sequence (looked up): T2 sequence (looked up)

T10: His-tagged recombinant Mouse TIGIT (mouse, UniProt P86176 29-148, limits assumed)
T10 construct: Coated on the plate at 0.5 µg/mL in the direct ELISA; not shown: His tag
T10 sequence (looked up): T2 sequence (looked up)

T11: human TIGIT expressed in YTS cells, fused to a portion of beta galactosidase (human, UniProt Q495A1 22-244)
T11 sequence (looked up): T5 sequence (looked up)

B1: Ab32i1 (antibody, V domains shown)
VH: EVQLLESGGGLVQPGGSLRLSCAASGFTFSSYSMHWVRQAPGKGLEWVANINSNGGNTGYADSVKGRFTISRDNSKNTLYLQMNSLRAEDTAVYYCARVPYDVWMDYWGQGTLVTVSS
VL: not shown
notes: hIgG1 of Ab32
B2: Ab48 (Fab, V domains shown)
VH: B1 VH with H35N, N52K, N54S, G56S, N57S, G59S, V99G
VL: not shown
notes: clone from a phage library of monovalent human Fabs; also called clone Ab48
B3: Ab40i5 (antibody, V domains shown)
VH: B1 VH with H35N, N50G, N52K, N54S, G55S, T58K, G59Y, V99G
VL: not shown
B4: Ab48i2 (antibody, V domains shown)
VH: B1 VH with H35N, N52K, N54S, G56S, N57S, G59S, V99G
VL: not shown
notes: mIgG2a of Ab48
B5: Ab143 (Fab, V domains shown)
VH: B1 VH with N50A, G55A, N57S, T58S, G59S, D102G
VL: not shown
notes: clone from a phage library of monovalent human Fabs; also called clone Ab143
B6: Ab53i4 (antibody, V domains shown)
VH: B1 VH with S33G, N50S, N52K, N54S, G55S, G56S, T58K, G59Y, V99G, M105L
VL: not shown
notes: mIgG2a of Ab53, S33G
B7: Ab40i6 (antibody, V domains shown)
VH: B1 VH with S33G, H35N, N50G, N52K, N54S, G55S, T58K, G59Y, V99G
VL: not shown
notes: hIgG1 of Ab40, Y52aS
B8: Ab53 (Fab, V domains shown)
VH: B1 VH with N50S, N52K, N54S, G55S, G56S, T58K, G59Y, V99G, M105L
VL: not shown
B9: Ab40i7 (antibody, V domains shown)
VH: B1 VH with S33G, H35N, N50G, N52K, N54S, G55S, T58K, G59Y, V99G
VL: not shown
notes: mIgG2a of Ab40, Y52aS
B10: Ab40 (Fab, V domains shown)
VH: B1 VH with S33G, H35N, N50G, N52K, S53Y, N54S, G55S, T58K, G59Y, V99G
VL: not shown
notes: clone from a phage library of monovalent human Fabs; also called clone Ab40
B11: Ab53i2 (antibody, V domains shown)
VH: B1 VH with N50S, N52K, N54S, G55S, G56S, T58K, G59Y, V99G, M105L
VL: not shown
notes: hIgG1 of Ab53
B12: Ab1 (Fab, V domains shown)
VH: B1 VH with S33A, A49S, N50G, N52S, N57S, G59S, D102S, M105I
VL: not shown
notes: clone from a phage library of monovalent human Fabs; also called clone Ab1
B13: Ab53i3 (antibody, V domains shown)
VH: B1 VH with S33G, N50S, N52K, N54S, G55S, G56S, T58K, G59Y, V99G, M105L
VL: not shown
notes: hIgG1 of Ab53, S33G
B14: Ab53i6 (antibody, V domains shown)
VH: EVQLLESGGGLVQPGGSLRLSCAASGFTFSSYGMHWVRQAPGKGLEWVASIKYSSSNKYYADSVKGRFTISRDNSKNTLYLQMNSLRAEDTAVYYCARGPYDVWLDYWGQGTLVTVSS
VL: not shown
B15: Ab53 (Fab, V domains shown)
VH: B14 VH with G33S, Y53S
VL: not shown
notes: clone from a phage library of monovalent human Fabs; also called clone Ab53
B16: Ab40i3 (antibody, V domains shown)
VH: B14 VH with G33S, H35N, S50G, S56G, L105M
VL: not shown
notes: mIgG2a of Ab40, G33S
B17: Ab48i1 (antibody, V domains shown)
VH: B1 VH with H35N, N52K, N54S, G56S, N57S, G59S, V99G
VL: not shown
notes: hIgG1 of Ab48
B18: Ab53i1 (antibody, V domains shown)
VH: B14 VH with G33S, Y53S
VL: not shown
notes: mIgG2a of Ab53
B19: Ab117 (Fab, V domains shown)
VH: B14 VH with G33A, H35S, S50A, Y53S, S55A, N57T, K58I, G99E, D102S, L105M
VL: not shown
notes: clone from a phage library of monovalent human Fabs; also called clone Ab117
B20: Ab117 (Fab, V domains shown)
VH: B14 VH with G33A, H35S, S50A, Y53S, S55A, N57T, K58I, G99E, D102S, L105M
VL: not shown
notes: ARE

What was measured:
[1] = target: T1, biotinylated human TIGIT; experiment: comp. ELISA vs PVR
Method: (§1) Antibodies were serially diluted in a 10-point curve starting at 1 μM in 3-fold steps. […] Units are in microM.

[2] = target: T2, mouse TIGIT-Fc; experiment: comp. ELISA vs PVR
Method: as §1

[3] = target: T3, His-tagged recombinant Human TIGIT; experiment: ELISA
Method: (§2) Binding affinities for antigen binding to anti-TIGIT monoclonal antibodies were determined by ELISA. […] Antibodies to be tested were diluted to 1 μM in PBS buffer containing 1% BSA and diluted 3-fold in a 10-point curve. […] Detection of the secondary antibody was determined using streptavidin-HRP and TMB reagent. All assays were performed at room temperature. Curve-fitting software was used to determine the EC₅₀ for each antibody.

[4] = target: T4, His-tagged recombinant Mouse TIGIT; experiment: ELISA
Method: as §2

[5] = target: T5, human TIGIT fused to a beta …; experiment: cell-based or functional assay
[6] = target: T6, biotinylated human TIGIT; experiment: competitive ELISA, biotin-hTIGIT to coated PVR
Method: as §1

[7] = target: T7, human TIGIT fused to a beta …; experiment: cell-based or functional assay
[8] = target: T8, mouse TIGIT-Fc; experiment: competitive ELISA, mTIGIT-Fc to coated PVR
Method: as §1

[9] = target: T7, human TIGIT fused to a beta …; experiment: cell-based or functional assay; remark: listed apart in the source
[10] = target: T7, human TIGIT fused to a beta …; experiment: cell-based or functional assay; remark: listed apart in the source
[11] = target: T7, human TIGIT fused to a beta …; experiment: cell-based or functional assay; remark: listed apart in the source
[12] = target: T9, mouse TIGIT-Fc; experiment: competitive ELISA vs coated PVR
Method: as §1

[13] = target: T10, His-tagged recombinant Mouse TIGIT; experiment: ELISA
Method: as §2

[14] = target: T11, human TIGIT expressed in YTS cells, …; experiment: cell-based or functional assay

| Binder | IC50 [1] [nM] | IC50 [2] [nM] | EC50 [3] [nM] | EC50 [4] [nM] | YTS_hTIGI/hGrbs_EFC_Antagonism, 221_hPVR/ICAM [5] [µM] | IC50 [8] [nM] | YTS_hTIGI/hGrbs_EFC_Agonism, 221_WT [5] [µM] | also measured |
| --- | --- | --- | --- | --- | --- | --- | --- | --- |
| B1 | 1.1 | 1.4 | 0.4 | 2.5 | 0.069 |  |  |  |
| B2 |  |  |  |  |  | 64.7 |  | IC50 [6]: 111 nM; EC50 of induced dimerization (YTS_hTIGIT/hTIGIT, 11 pt) [7]: 477 nM |
| B3 | 4.2 | 16.9 | 0.2 | 2.4 | 0.238 |  | 0.0358 |  |
| B4 | 1.6 | 1.9 | 0.2 | 0.2 | 0.0068 |  |  |  |
| B5 |  |  |  |  |  | 22 |  | IC50 of inhibition of Grb2 recruitment (YTS_hTIGIT/hGrb2, 221_hPVR/ICAM, 11 pt) [9]: 60.2 nM; IC50 [6]: 20.3 nM; EC50 of induced dimerization (YTS_hTIGIT/hTIGIT, 11 pt) [10]: 4.7 nM |
| B6 | 6.7 | 48.2 | 1.1 | 4.6 | 0.45 |  | 0.0185 |  |
| B7 | 2.7 | 78.8 | 0.3 | 37 | 0.276 |  | 0.0014 |  |
| B8 | 9 | 35.3 | 4.3 | 7.6 | 0.0303 |  |  |  |
| B9 | 3 | 121 | 0.2 | 7.6 | 0.0163 |  | 0.0156 |  |
| B10 |  |  |  |  |  | > 1000 |  | IC50 [6]: 3.8 nM; IC50 of inhibition of Grb2 recruitment (YTS_hTIGIT/hGrb2, 221_hPVR/ICAM, 11 pt) [11]: 2.3 nM; EC50 of induced dimerization (YTS_hTIGIT/hTIGIT, 11 pt) [7]: 9.5 nM |
| B11 | 0.6 | 1.5 | 0.1 | 0.2 | 0.0675 |  |  |  |
| B12 |  |  |  |  |  | 632 |  | IC50 [6]: 89.9 nM |
| B13 | 8.3 | 18.5 | 0.8 | 6.3 | > 1 |  | 0.0042 |  |
| B14 | 1.7 | > 1000 | 0.2 | 32.3 | 0.0363 |  | 0.0077 |  |
| B15 |  |  |  |  |  | 35.3 |  | IC50 [6]: 9 nM; IC50 of inhibition of Grb2 recruitment (YTS_hTIGIT/hGrb2, 221_hPVR/ICAM, 11 pt) [11]: 30.3 nM; EC50 of induced dimerization (YTS_hTIGIT/hTIGIT, 11 pt) [7]: 2.7 nM |
| B16 | 3.7 | > 1000 | 0.2 | 41 | 0.0098 |  | 0.08 |  |
| B17 | 1.9 | 1.5 | 0.2 | 0.2 | 0.0286 |  |  |  |
| B18 | 1.6 | 4.2 | 0.3 | 0.4 | 0.0259 |  |  |  |
| B19 |  |  |  |  |  | 23.4 |  |  |
| B20 |  |  |  |  |  |  |  | IC50 [12]: 23.4 nM; EC50 [13]: 10.7 nM; YTS_hTIGI/hGrbs_EFC_Agonism (EC50) [14]: > 1000 nM; YTS_hTIGI/hGrbs_EFC_Antagonism (IC50) [14]: > 1000 nM; YTS_hTIGIT/hTIGIT_EFC (EC50) [14]: > 1000 nM |
